# Test results as given in publication PMC10698284.
# B1: SLC3A2 (4F2hc, CD98): N381D (protein)
# parent chain: MELQPPEASIAVVSIPRQLPGSHSEAGVQGLSAGDDSELGSHCVAQTGLELLASGDPLPSASQNAEMIETGSDCVTQAGLQLLASSDPPALASKNAEVTGTMSQDTEVDMKEVELNELEPEKQPMNAASGAAMSLAGAEKNGLVKIKVAEDEAEAAAAAKFTGLSKEELLKVAGSPGWVRTRWALLLLFWLGWLGMLAGAVVIIVRAPRCRELPAQKWWHTGALYRIGDLQAFQGHGAGNLAGLKGRLDYLSSLKVKGLVLGPIHKNQKDDVAQTDLLQIDPNFGSKEDFDSLLQSAKKKSIRVILDLTPNYRGENSWFSTQVDTVATKVKDALEFWLQAGVDGFQVRDIENLKDASSFLAEWQNITKGFSEDRLLIAGTNSSDLQQILSLLESNKDLLLTSSYLSDSGSTGEHTKSLVTQYLNATGNRWCSWSLSQARLLTSFLPAQLLRLYQLMLFTLPGTPVFSYGDEIGLDAAALPGQPMEAPVMLWDESSFPDIPGAVSANMTVKGQSEDPGSLLSLFRRLSDQRSKERSLLHGDFHAFSAGPGLFSYIRHWDQNERFLVVLNFGDVGLSAGLQASDLPASASLPAKADLLLSTQPGREEGSPLELERLKLEPHEGLLLRFPYAA
# B2: SLC3A2 (4F2hc, CD98): N365D (protein)
# parent chain: B1 parent chain
# B3: SLC3A2 (4F2hc, CD98): D355N + D492N (protein)
# parent chain: B1 parent chain
# B4: SLC3A2 (4F2hc, CD98): A273N + D355N (protein)
# parent chain: B1 parent chain
# B5: SLC3A2 (4F2hc, CD98): A273N (protein)
# parent chain: B1 parent chain
# Key:
# [1] = anti-SLC3A2 antibody uptake, 10 min 37 °C; details: glycan lost; control: WTseq
# [2] = endosomal distribution of internalised SLC3A2, confocal; details: glycan lost; control: WTseq (small peripheral endosomes)
# [3] = response of SLC3A2 endocytosis to 5 min inhibitor; details: glycan lost; control: WTseq (inhibitor reduced internalization by ∼50%)
# [4] = Gal3-488 internalisation, 10 min 37 °C; details: glycan lost; control: WTseq
# [5] = surface anti-SLC3A2 antibody binding at 4 °C, imaging; details: glycan lost; control: WTseq
# [6] = dox-induced expression and FLAG pull-down efficiency; details: control: WTseq
protein,measurement,setting,value
B1,localisation_or_trafficking,[1],increases
same,localisation_or_trafficking,[2],changes
same,localisation_or_trafficking,[3],abolishes
same,other: Gal3 uptake by expressing cells,[4],decreases
same,localisation_or_trafficking,[5],no change
same,expression_or_secretion,[6]; glycan lost,no change
B2,localisation_or_trafficking,[1],increases
same,localisation_or_trafficking,[2],changes
same,localisation_or_trafficking,[3],changes
same,other: Gal3 uptake by expressing cells,[4],increases
same,localisation_or_trafficking,[5],no change
same,expression_or_secretion,[6]; glycan lost,no change
B3,expression_or_secretion,[6]; glycan gained,no change
B4,expression_or_secretion,[6]; glycan gained,no change
B5,expression_or_secretion,[6]; glycan gained,no change
